The test deals with cardiac ryanodine receptor (RyR2) in permeabilized rat ventricular myocytes (rat (endogenous in ventricular myocytes)) (UniProt B0LPN4).
UniProt B0LPN4, sequence (B0LPN4 whole entry): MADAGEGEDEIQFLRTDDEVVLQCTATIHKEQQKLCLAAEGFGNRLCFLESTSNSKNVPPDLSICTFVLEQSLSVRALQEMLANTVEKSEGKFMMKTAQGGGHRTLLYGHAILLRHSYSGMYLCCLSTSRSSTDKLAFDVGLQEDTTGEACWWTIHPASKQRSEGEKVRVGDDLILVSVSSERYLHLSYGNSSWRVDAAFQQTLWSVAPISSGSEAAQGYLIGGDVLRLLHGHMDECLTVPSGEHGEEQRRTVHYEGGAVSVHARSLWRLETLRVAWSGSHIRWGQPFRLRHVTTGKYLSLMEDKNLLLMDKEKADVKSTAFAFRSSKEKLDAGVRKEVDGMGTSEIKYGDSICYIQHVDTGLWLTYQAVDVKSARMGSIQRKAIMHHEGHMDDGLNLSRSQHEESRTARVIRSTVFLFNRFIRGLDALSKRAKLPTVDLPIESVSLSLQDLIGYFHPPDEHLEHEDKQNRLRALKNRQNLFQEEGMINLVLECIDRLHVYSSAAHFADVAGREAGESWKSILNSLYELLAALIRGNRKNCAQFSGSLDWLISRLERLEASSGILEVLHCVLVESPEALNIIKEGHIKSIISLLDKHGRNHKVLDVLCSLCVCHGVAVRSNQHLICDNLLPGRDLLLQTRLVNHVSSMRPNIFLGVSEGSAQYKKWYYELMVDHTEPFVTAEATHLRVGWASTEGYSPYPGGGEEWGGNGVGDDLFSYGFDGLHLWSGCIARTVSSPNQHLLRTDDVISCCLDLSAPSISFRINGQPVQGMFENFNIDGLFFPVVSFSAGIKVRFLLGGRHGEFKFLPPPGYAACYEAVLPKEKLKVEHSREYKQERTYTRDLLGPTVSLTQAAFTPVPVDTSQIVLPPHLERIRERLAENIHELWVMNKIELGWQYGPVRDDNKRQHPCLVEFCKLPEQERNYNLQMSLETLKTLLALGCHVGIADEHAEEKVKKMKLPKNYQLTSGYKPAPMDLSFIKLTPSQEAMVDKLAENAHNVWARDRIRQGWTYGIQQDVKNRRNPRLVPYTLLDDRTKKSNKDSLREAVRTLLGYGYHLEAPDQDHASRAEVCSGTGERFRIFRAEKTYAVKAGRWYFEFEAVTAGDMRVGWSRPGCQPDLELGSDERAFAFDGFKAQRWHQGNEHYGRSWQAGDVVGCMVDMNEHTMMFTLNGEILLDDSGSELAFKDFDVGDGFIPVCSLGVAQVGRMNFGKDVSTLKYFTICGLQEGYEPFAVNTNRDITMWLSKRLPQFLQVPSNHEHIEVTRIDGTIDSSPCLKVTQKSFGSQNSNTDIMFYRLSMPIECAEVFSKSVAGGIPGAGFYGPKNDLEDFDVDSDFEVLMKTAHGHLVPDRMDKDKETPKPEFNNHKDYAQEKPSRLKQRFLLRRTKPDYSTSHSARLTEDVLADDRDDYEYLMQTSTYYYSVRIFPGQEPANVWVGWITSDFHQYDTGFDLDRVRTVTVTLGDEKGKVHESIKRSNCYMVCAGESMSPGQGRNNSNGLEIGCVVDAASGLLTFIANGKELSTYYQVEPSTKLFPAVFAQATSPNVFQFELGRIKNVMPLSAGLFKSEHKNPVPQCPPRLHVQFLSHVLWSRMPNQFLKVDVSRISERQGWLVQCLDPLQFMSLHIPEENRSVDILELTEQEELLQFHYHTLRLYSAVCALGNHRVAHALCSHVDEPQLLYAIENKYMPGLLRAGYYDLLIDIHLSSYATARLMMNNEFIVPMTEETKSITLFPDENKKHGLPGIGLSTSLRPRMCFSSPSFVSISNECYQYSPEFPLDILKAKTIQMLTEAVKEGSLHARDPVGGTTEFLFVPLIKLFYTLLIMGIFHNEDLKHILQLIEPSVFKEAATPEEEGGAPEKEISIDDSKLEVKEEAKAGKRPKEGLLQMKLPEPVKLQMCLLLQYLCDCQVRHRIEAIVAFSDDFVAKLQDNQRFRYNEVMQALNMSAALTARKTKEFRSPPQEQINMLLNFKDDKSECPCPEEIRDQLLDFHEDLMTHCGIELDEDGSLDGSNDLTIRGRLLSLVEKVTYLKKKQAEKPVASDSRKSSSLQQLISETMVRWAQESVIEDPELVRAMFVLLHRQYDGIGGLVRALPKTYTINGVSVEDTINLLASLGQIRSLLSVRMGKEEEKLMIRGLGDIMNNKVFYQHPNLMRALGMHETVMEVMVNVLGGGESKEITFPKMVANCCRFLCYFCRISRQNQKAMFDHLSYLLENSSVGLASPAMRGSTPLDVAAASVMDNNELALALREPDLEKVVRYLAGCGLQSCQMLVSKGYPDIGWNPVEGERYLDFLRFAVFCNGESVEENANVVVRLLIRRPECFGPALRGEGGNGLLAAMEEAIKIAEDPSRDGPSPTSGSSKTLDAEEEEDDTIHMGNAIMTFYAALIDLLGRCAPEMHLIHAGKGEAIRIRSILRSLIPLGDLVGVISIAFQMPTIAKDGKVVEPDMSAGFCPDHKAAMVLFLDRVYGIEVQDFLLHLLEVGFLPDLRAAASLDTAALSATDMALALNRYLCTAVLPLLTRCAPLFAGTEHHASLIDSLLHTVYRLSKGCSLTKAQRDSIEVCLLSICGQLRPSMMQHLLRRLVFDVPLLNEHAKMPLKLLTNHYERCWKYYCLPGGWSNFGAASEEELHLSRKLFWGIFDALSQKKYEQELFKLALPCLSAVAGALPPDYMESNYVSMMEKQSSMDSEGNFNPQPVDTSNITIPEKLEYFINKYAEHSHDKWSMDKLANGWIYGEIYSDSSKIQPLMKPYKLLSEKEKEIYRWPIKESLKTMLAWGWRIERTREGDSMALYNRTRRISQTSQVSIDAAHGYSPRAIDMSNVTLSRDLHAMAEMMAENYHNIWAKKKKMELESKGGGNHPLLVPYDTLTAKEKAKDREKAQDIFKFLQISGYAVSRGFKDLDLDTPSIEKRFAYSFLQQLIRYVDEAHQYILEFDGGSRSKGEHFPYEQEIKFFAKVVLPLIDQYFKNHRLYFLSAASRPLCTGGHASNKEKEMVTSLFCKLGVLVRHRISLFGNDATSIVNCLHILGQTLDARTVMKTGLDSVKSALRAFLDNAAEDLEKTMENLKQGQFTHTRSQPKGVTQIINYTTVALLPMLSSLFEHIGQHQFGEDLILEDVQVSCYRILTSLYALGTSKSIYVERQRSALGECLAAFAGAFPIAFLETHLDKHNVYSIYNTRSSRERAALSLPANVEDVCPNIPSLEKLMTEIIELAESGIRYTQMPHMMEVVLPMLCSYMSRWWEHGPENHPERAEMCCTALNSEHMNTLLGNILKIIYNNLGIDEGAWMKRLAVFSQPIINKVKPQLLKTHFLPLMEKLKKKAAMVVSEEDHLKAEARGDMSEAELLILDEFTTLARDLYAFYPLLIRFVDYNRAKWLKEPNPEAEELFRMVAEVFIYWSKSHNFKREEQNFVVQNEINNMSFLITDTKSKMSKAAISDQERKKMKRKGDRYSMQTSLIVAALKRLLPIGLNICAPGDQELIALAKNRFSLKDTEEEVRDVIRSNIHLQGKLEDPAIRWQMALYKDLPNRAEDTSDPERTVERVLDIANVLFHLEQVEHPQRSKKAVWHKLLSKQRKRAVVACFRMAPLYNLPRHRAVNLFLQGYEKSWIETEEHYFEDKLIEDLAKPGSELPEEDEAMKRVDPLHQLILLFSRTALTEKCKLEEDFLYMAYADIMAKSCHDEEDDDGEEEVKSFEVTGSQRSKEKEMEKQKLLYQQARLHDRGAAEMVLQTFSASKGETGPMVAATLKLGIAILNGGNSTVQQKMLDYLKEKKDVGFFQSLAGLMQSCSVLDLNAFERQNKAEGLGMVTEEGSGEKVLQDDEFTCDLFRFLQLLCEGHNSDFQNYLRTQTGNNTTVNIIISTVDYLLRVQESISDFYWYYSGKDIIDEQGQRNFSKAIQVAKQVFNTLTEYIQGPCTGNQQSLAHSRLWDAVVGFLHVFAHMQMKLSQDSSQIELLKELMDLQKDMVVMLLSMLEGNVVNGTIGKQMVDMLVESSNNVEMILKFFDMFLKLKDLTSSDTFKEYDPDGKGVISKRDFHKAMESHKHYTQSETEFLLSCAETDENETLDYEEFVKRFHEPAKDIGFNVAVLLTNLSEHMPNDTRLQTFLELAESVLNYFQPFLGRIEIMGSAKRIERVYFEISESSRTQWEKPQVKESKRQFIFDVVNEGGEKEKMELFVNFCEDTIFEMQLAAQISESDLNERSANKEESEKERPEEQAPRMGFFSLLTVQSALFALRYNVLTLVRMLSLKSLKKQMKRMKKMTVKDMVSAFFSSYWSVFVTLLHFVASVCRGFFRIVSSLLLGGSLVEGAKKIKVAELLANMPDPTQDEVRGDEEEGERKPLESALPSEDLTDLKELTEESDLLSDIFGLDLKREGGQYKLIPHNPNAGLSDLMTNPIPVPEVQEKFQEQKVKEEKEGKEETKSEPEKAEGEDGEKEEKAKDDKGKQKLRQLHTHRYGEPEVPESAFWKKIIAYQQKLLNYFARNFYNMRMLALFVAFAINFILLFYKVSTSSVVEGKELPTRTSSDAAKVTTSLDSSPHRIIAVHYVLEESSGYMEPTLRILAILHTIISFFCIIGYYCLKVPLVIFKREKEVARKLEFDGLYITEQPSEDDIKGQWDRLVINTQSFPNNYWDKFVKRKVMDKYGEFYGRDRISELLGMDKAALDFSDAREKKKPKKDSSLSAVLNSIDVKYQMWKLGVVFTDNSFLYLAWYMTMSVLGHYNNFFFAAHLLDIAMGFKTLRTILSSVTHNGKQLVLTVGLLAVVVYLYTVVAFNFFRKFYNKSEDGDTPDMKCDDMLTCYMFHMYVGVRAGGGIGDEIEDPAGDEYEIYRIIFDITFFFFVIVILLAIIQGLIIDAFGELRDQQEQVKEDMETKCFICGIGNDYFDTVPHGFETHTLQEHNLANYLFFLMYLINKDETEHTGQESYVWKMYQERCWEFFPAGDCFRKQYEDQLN

In turn, “non-fluorescent wild type FKBP12.6 (from UniProt P68106 1-108) (natural protein)” registered a decrease in Ca spark amplitude in permeabilized rat myocytes of 15% and a decrease in resting Ca spark frequency (CaSpF) in permeabilized rat myocytes of 24%.
